From US20140220070A1, “USE OF PLANT CELL MEMBRANE TREATMENT OF OBESITY” (Thylabisco AB, priority 2005, published 2014)

Target: T1, pancreatic lipase (Homo sapiens, UniProt P16233)
T1 sequence (P16233 17-465): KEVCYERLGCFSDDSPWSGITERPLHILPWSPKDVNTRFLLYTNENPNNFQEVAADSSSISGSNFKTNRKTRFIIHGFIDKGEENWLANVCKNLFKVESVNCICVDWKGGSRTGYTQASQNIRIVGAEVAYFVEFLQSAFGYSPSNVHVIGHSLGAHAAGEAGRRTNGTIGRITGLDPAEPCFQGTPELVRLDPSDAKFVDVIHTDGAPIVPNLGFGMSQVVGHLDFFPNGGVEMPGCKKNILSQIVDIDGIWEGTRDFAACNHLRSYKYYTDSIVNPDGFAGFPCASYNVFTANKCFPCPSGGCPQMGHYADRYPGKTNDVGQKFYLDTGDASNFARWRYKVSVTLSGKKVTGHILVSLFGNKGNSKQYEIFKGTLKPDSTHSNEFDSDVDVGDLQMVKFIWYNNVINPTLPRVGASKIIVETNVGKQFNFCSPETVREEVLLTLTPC
Experiment: Measurement of the lipase activity (pH stat, tributyrin)
Assay type: biochemical
Settings: increasing amounts of membranes/proteins, lipase + colipase, pH 7.0, curves only in FIG. 1-3
Protocol: The lipase activity was measured according to the following (Borgstrom B. and Erlanson C. European J. of Biochemistry 37: 60-68, 1973): 15 ml of an aqueous solution containing 1 mM Tris buffer pH 7.0, 1 mM calcium chloride, 150 mM sodium chloride, 4 mM sodiumtaurodeoxycholate, 0.5 μg lipase, 1 μg of colipase.
To this mixture 0.5 ml of tributyrin is added together with increasing amounts of membranes and the released fatty acids measured using a pH stat.

“transhydrogenase: isolated membrane protein, transhydrogenase prepared from E. coli” was tested. Which “inhibition of pancreatic lipase” value did it give?
Its value is “inhibition”.
